Source: patent publication US20120122239A1

Tests used:
[1] = molecular target: glycosylated human proBNP (HyTest, Turku, Finland; Catalog No. 8GOB2) (human); assay: sandwich CMIA, capture 15F11, analyte 0.0 pM (blank)
[2] = molecular target: human pro B-type natriuretic peptide (HyTest, Turku, Finland; Catalog No. 8PRO8) (human); assay: as above
[3] = molecular target: human NT-pro B-type natriuretic peptide (HyTest, Turku, Finland; Catalog No. 8NT1) (human); assay: as above
[4] = molecular target: glycosylated human proBNP (HyTest, Turku, Finland; Catalog No. 8GOB2) (human); assay: sandwich CMIA, capture 15C4, analyte 577.4 pM
[5] = molecular target: human pro B-type natriuretic peptide (HyTest, Turku, Finland; Catalog No. 8PRO8) (human); assay: sandwich CMIA, capture 15C4, analyte 577.4 pM
[6] = molecular target: human NT-pro B-type natriuretic peptide (HyTest, Turku, Finland; Catalog No. 8NT1) (human); assay: sandwich CMIA, capture 15C4, analyte 577.4 pM
[7] = molecular target: glycosylated human proBNP (HyTest, Turku, Finland; Catalog No. 8GOB2) (human); assay: sandwich CMIA, capture 15F11, analyte 288.7 pM
[8] = molecular target: human pro B-type natriuretic peptide (HyTest, Turku, Finland; Catalog No. 8PRO8) (human); assay: sandwich CMIA, capture 15F11, analyte 288.7 pM
[9] = molecular target: human NT-pro B-type natriuretic peptide (HyTest, Turku, Finland; Catalog No. 8NT1) (human); assay: sandwich CMIA, capture 15F11, analyte 288.7 pM
[10] = molecular target: glycosylated human proBNP (HyTest, Turku, Finland; Catalog No. 8GOB2) (human); assay: sandwich CMIA, capture 15C4, analyte 288.7 pM
[11] = molecular target: human pro B-type natriuretic peptide (HyTest, Turku, Finland; Catalog No. 8PRO8) (human); assay: sandwich CMIA, capture 15C4, analyte 288.7 pM
[12] = molecular target: human NT-pro B-type natriuretic peptide (HyTest, Turku, Finland; Catalog No. 8NT1) (human); assay: sandwich CMIA, capture 15C4, analyte 288.7 pM
[13] = molecular target: human pro B-type natriuretic peptide (HyTest, Turku, Finland; Catalog No. 8PRO8) (human); assay: sandwich CMIA, 15C4 (63-71) with 13G12 (13-20), against human NT-proBNP
[14] = molecular target: glycosylated human proBNP (HyTest, Turku, Finland; Catalog No. 8GOB2) (human); assay: sandwich CMIA, capture 15C4, 86.6 pM, against human NT-proBNP
[15] = molecular target: human pro B-type natriuretic peptide (HyTest, Turku, Finland; Catalog No. 8PRO8) (human); assay: as above
[16] = molecular target: glycosylated human proBNP (HyTest, Turku, Finland; Catalog No. 8GOB2) (human); assay: sandwich CMIA, capture 15C4, analyte 0.0 pM (blank)
[17] = molecular target: human pro B-type natriuretic peptide (HyTest, Turku, Finland; Catalog No. 8PRO8) (human); assay: as above
[18] = molecular target: human NT-pro B-type natriuretic peptide (HyTest, Turku, Finland; Catalog No. 8NT1) (human); assay: as above
[19] = molecular target: glycosylated human proBNP (HyTest, Turku, Finland; Catalog No. 8GOB2) (human); assay: sandwich CMIA, capture 15C4, 577.4 pM, against human NT-proBNP
[20] = molecular target: human pro B-type natriuretic peptide (HyTest, Turku, Finland; Catalog No. 8PRO8) (human); assay: as above
[21] = molecular target: glycosylated human proBNP (HyTest, Turku, Finland; Catalog No. 8GOB2) (human); assay: sandwich CMIA, capture 15C4, analyte 43.3 pM
[22] = molecular target: human pro B-type natriuretic peptide (HyTest, Turku, Finland; Catalog No. 8PRO8) (human); assay: sandwich CMIA, capture 15C4, analyte 43.3 pM
[23] = molecular target: human NT-pro B-type natriuretic peptide (HyTest, Turku, Finland; Catalog No. 8NT1) (human); assay: sandwich CMIA, capture 15C4, analyte 43.3 pM
[24] = molecular target: glycosylated human proBNP (HyTest, Turku, Finland; Catalog No. 8GOB2) (human); assay: sandwich CMIA, capture 15F11, analyte 577.4 pM
[25] = molecular target: human pro B-type natriuretic peptide (HyTest, Turku, Finland; Catalog No. 8PRO8) (human); assay: sandwich CMIA, capture 15F11, analyte 577.4 pM
[26] = molecular target: human NT-pro B-type natriuretic peptide (HyTest, Turku, Finland; Catalog No. 8NT1) (human); assay: sandwich CMIA, capture 15F11, analyte 577.4 pM
[27] = molecular target: glycosylated human proBNP (HyTest, Turku, Finland; Catalog No. 8GOB2) (human); assay: sandwich CMIA, capture 15F11, analyte 43.3 pM
[28] = molecular target: human pro B-type natriuretic peptide (HyTest, Turku, Finland; Catalog No. 8PRO8) (human); assay: sandwich CMIA, capture 15F11, analyte 43.3 pM
[29] = molecular target: human NT-pro B-type natriuretic peptide (HyTest, Turku, Finland; Catalog No. 8NT1) (human); assay: sandwich CMIA, capture 15F11, analyte 43.3 pM
[30] = molecular target: glycosylated human proBNP (HyTest, Turku, Finland; Catalog No. 8GOB2) (human); assay: sandwich CMIA, capture 15C4, 288.7 pM, against human NT-proBNP
[31] = molecular target: human pro B-type natriuretic peptide (HyTest, Turku, Finland; Catalog No. 8PRO8) (human); assay: as above
[32] = molecular target: glycosylated human proBNP (HyTest, Turku, Finland; Catalog No. 8GOB2) (human); assay: sandwich CMIA, capture 15F11, analyte 86.6 pM
[33] = molecular target: human pro B-type natriuretic peptide (HyTest, Turku, Finland; Catalog No. 8PRO8) (human); assay: sandwich CMIA, capture 15F11, analyte 86.6 pM
[34] = molecular target: human NT-pro B-type natriuretic peptide (HyTest, Turku, Finland; Catalog No. 8NT1) (human); assay: sandwich CMIA, capture 15F11, analyte 86.6 pM
[35] = molecular target: glycosylated human proBNP (HyTest, Turku, Finland; Catalog No. 8GOB2) (human); assay: sandwich CMIA, capture 15C4, analyte 86.6 pM
[36] = molecular target: human pro B-type natriuretic peptide (HyTest, Turku, Finland; Catalog No. 8PRO8) (human); assay: sandwich CMIA, capture 15C4, analyte 86.6 pM
[37] = molecular target: human NT-pro B-type natriuretic peptide (HyTest, Turku, Finland; Catalog No. 8NT1) (human); assay: sandwich CMIA, capture 15C4, analyte 86.6 pM
[38] = molecular target: glycosylated human proBNP (HyTest, Turku, Finland; Catalog No. 8GOB2) (human); assay: sandwich CMIA, capture 15C4, 43.3 pM, against human NT-proBNP
[39] = molecular target: human pro B-type natriuretic peptide (HyTest, Turku, Finland; Catalog No. 8PRO8) (human); assay: as above
[40] = molecular target: human pro B-type natriuretic peptide (HyTest, Turku, Finland; Catalog No. 8PRO8) (human); assay: sandwich CMIA, 15C4 (63-71) with 16F3 (13-20), against human NT-proBNP
[41] = molecular target: human pro B-type natriuretic peptide (HyTest, Turku, Finland; Catalog No. 8PRO8) (human); assay: sandwich CMIA, 15C4 (63-71) with 18H5 (13-20), against human NT-proBNP

Sequence of glycosylated human proBNP (HyTest, Turku, Finland; Catalog No. 8GOB2) (human) (chain, as listed by the source): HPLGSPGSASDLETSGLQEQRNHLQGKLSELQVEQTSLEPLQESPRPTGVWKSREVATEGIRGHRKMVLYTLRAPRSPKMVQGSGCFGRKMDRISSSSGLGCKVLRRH
Sequence of human NT-pro B-type natriuretic peptide (HyTest, Turku, Finland; Catalog No. 8NT1) (human) (chain, as listed by the source): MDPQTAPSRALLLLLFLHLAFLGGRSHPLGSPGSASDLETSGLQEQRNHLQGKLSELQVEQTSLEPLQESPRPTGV

Analyte rlus [1] [rlus]	Analyte rlus [2] [rlus]	Analyte rlus [3] [rlus]	Analyte rlus [4] [rlus]	Analyte rlus [5] [rlus]	Analyte rlus [6] [rlus]	Analyte rlus [7] [rlus]	Analyte rlus [8] [rlus]	Analyte rlus [9] [rlus]	Analyte rlus [10] [rlus]	Analyte rlus [12] [rlus]	% Cross-reactivity [14] [%]	% Cross-reactivity [15] [%]	Analyte rlus [16] [rlus]	Analyte rlus [17] [rlus]	Analyte rlus [18] [rlus]	% Cross-reactivity [19] [%]	% Cross-reactivity [20] [%]	Analyte rlus [21] [rlus]	Analyte rlus [22] [rlus]	Substance	also measured
841	841	841	1240	37200	309000	831	920	820	967	131000	0.1	12.9	892	892	892	0.1	11.8	905	2220	anti-human NT-proBNP/anti-human proBNP labeled monoclonal antibody 13G12 (HyTest, Turku, Finland)	Analyte rlus [11]: 16700 rlus; % Cross-reactivity [13]: 10%; Analyte rlus [23]: 10300 rlus; Analyte rlus [24]: 778 rlus; Analyte rlus [25]: 1080 rlus; Analyte rlus [26]: 805 rlus; Analyte rlus [27]: 798 rlus; Analyte rlus [28]: 800 rlus; Analyte rlus [29]: 777 rlus; % Cross-reactivity [30]: 0.1%; % Cross-reactivity [31]: 12.1%; Analyte rlus [32]: 767 rlus; Analyte rlus [33]: 802 rlus; Analyte rlus [34]: 761 rlus; Analyte rlus [35]: 912 rlus; Analyte rlus [36]: 4080 rlus; Analyte rlus [37]: 25600 rlus; % Cross-reactivity [38]: 0.1%; % Cross-reactivity [39]: 14.1%
640	640	640	1090	34700	320000	643	720	696	827	140000	-0.7	11.9	1040	1040	1040	0	10.6	691	1990	anti-human NT-proBNP/anti-human proBNP labeled monoclonal antibody 16F3 (HyTest, Turku, Finland)	Analyte rlus [11]: 13700 rlus; % Cross-reactivity [40]: 10%; Analyte rlus [23]: 11400 rlus; Analyte rlus [24]: 635 rlus; Analyte rlus [25]: 914 rlus; Analyte rlus [26]: 631 rlus; Analyte rlus [27]: 586 rlus; Analyte rlus [28]: 624 rlus; Analyte rlus [29]: 630 rlus; % Cross-reactivity [30]: -0.2%; % Cross-reactivity [31]: 9.1%; Analyte rlus [32]: 587 rlus; Analyte rlus [33]: 621 rlus; Analyte rlus [34]: 592 rlus; Analyte rlus [35]: 861 rlus; Analyte rlus [36]: 4060 rlus; Analyte rlus [37]: 26500 rlus; % Cross-reactivity [38]: -3.3%; % Cross-reactivity [39]: 9.2%
626	626	626	1580	46500	337000	663	949	708	1230	162000	0.2	15.3	704	704	704	0.3	13.6	756	3380	anti-human NT-proBNP/anti-human proBNP labeled monoclonal antibody 18H5 (HyTest, Turku, Finland)	Analyte rlus [23]: 18000 rlus; Analyte rlus [24]: 754 rlus; Analyte rlus [25]: 1440 rlus; Analyte rlus [26]: 664 rlus; % Cross-reactivity [41]: 10%; Analyte rlus [27]: 618 rlus; Analyte rlus [28]: 628 rlus; Analyte rlus [29]: 621 rlus; % Cross-reactivity [30]: 0.3%; Analyte rlus [32]: 737 rlus; Analyte rlus [33]: 664 rlus; Analyte rlus [34]: 636 rlus; Analyte rlus [35]: 783 rlus; Analyte rlus [36]: 6590 rlus; Analyte rlus [37]: 39100 rlus; % Cross-reactivity [38]: 0.3%; % Cross-reactivity [39]: 15.5%
